The results in this text go back to patent US8034769.

In general, Kd refers to a measure of binding affinity in units of concentration. A low value points to higher affinity. One may read the kon as a measure of how fast the partners come together. Lower therefore signals slower complex formation.

One assay concerns the target CD4 (UniProt P01730). The assay can be described thus: SPR, BIACORE 2000, CD4 immobilized on C1 chip. (In general: SPR reads the build-up and loss of mass on a sensor chip optically.)
The next assay addresses HIV-GP120 (HIV-1). Description: SPR, BIACORE 2000, HIV-GP120 immobilized on C1 chip.

Chain of oxidized antithrombin III (P01008 33-464): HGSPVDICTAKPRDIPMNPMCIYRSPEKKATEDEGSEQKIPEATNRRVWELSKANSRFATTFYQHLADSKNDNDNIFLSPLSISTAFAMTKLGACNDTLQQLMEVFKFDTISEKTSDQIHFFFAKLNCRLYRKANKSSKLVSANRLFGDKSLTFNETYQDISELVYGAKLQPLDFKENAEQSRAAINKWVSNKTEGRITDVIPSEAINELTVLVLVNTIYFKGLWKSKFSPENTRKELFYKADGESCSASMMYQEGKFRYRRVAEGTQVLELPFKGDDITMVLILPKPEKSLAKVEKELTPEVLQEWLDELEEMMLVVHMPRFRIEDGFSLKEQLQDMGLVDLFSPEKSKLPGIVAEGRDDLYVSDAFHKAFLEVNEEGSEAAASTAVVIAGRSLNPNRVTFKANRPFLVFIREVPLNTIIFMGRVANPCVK

In the assay with CD4, oxidized antithrombin III displayed a Kd of 1.63 nM and an association rate constant (kon) of 713000 M⁻¹ s⁻¹. In the assay with HIV-GP120 (HIV-1), this substance showed an equilibrium dissociation constant (Kd) of 0.701 nM and a kon of 638000 M⁻¹ s⁻¹.
